The supplement of paper PMC7125110
± gives the standard error. For some assays here: Fewer inactive variants are shown than the library holds.

B1: glmS ribozyme (parent)
chain: AUAAAAGCGCCAGAACUACAGAAAUGUAGUUGACGAGGAGGAGGUUUAUCGAAUUUUCGGCGGAUGCCUCCAAA

Legend:
Details in all cases: with glucosamine-6-phosphate
glucosamine-6-phosphate [1] = variants of: B1; experiment: kcat; higher = faster cleavage; RNA array
In short: (§1)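 Over ~14 h at 37 °C, tiles were imaged as glucosamine-6-phosphate (40 μM to 10 mM) in HEPES/KCl/Mg(OAc)2 buffer flowed across sequenced MiSeq chips. The chips carried barcoded ribozyme variants transcribed in situ by E. coli RNA polymerase and tracked with a hybridised Cy3 probe. After normalisation to baseline and to non-cleaving reference variants, one- or two-exponential decay fits of per-tile medians gave kobs. kcat and KM followed from weighted Michaelis–Menten fits across concentrations.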

glucosamine-6-phosphate [2] = variants of: B1; experiment: self-cleavage kobs at 160 uM GlcN6P; higher = faster cleavage; RNA array
In short: as §1

glucosamine-6-phosphate [3] = variants of: B1; experiment: self-cleavage kobs at 640 uM GlcN6P; higher = faster cleavage; RNA array
In short: as §1

glucosamine-6-phosphate [4] = variants of: B1; experiment: self-cleavage kobs at 2500 uM GlcN6P; higher = faster cleavage; RNA array
In short: as §1

glucosamine-6-phosphate [5] = variants of: B1; experiment: self-cleavage kobs at 10000 uM GlcN6P; higher = faster cleavage; RNA array
In short: as §1

glucosamine-6-phosphate [6] = variants of: B1; experiment: KM; higher = weaker cofactor use; RNA array
In short: as §1

glucosamine-6-phosphate [7] = variants of: B1; experiment: self-cleavage kobs at 40 uM GlcN6P; higher = faster cleavage; RNA array
In short: as §1

**Q.** A15U C50A was tested. Which kcat (glucosamine-6-phosphate [1]) did it give?
**A.** Its kcat is 1.29e-05 ± 3.8e-06 s⁻¹.

**Q.** What does the source list for A15G U65C?
**A.** kcat (glucosamine-6-phosphate [1]): 0.000964 ± 0.00027 s⁻¹; self-cleavage kobs at 160 uM GlcN6P (glucosamine-6-phosphate [2]): 7.34e-05 ± 2.9e-05 s⁻¹; self-cleavage kobs at 640 uM GlcN6P (glucosamine-6-phosphate [3]): 0.00026 ± 5e-05 s⁻¹; self-cleavage kobs at 2500 uM GlcN6P (glucosamine-6-phosphate [4]): 0.000852 ± 0.00013 s⁻¹; self-cleavage kobs at 10000 uM GlcN6P (glucosamine-6-phosphate [5]): 0.000673 ± 0.00014 s⁻¹

**Q.** Which kcat (glucosamine-6-phosphate [1]) does the source give for A33G C68G here?
**A.** Its kcat is 3.02e-05 ± 6e-06 s⁻¹.

**Q.** And the “self-cleavage kobs at 160 uM GlcN6P” value (glucosamine-6-phosphate [2])?
**A.** Its value is 3.17e-05 ± 1.3e-05 s⁻¹.

**Q.** And the “self-cleavage kobs at 640 uM GlcN6P” value (glucosamine-6-phosphate [3])?
**A.** Its value is 3.59e-05 ± 1.5e-05 s⁻¹.

**Q.** Which results are given for G13A U56A?
**A.** kcat (glucosamine-6-phosphate [1]): 0.000767 ± 0.0001 s⁻¹; KM (glucosamine-6-phosphate [6]): 3960 ± 750 µM; self-cleavage kobs at 160 uM GlcN6P (glucosamine-6-phosphate [2]): 2.49e-05 ± 1e-05 s⁻¹; self-cleavage kobs at 640 uM GlcN6P (glucosamine-6-phosphate [3]): 0.000106 ± 1.3e-05 s⁻¹; self-cleavage kobs at 2500 uM GlcN6P (glucosamine-6-phosphate [4]): 0.000312 ± 3.9e-05 s⁻¹; self-cleavage kobs at 10000 uM GlcN6P (glucosamine-6-phosphate [5]): 0.000519 ± 0.00011 s⁻¹

**Q.** How did the kcat (glucosamine-6-phosphate [1]) turn out when C16A A33U was run?
**A.** The kcat was 1.2e-05 ± 3e-06 s⁻¹.

**Q.** And the “self-cleavage kobs at 40 uM GlcN6P” value (glucosamine-6-phosphate [7])?
**A.** Its value is < 1e-05 s⁻¹.

**Q.** And the “self-cleavage kobs at 160 uM GlcN6P” value (glucosamine-6-phosphate [2])?
**A.** Its value is < 1e-05 s⁻¹.

**Q.** For G38C C67U C70G, which kcat (glucosamine-6-phosphate [1]) is on record?
**A.** Its kcat is 1.59e-05 ± 1.8e-06 s⁻¹.

**Q.** How did the kcat (glucosamine-6-phosphate [1]) turn out when A14U A52G was run?
**A.** Its kcat is 0.00038 ± 0.0001 s⁻¹.

**Q.** And the KM (glucosamine-6-phosphate [6])?
**A.** The KM was 2840 ± 1300 µM.

**Q.** What about the “self-cleavage kobs at 160 uM GlcN6P” value (glucosamine-6-phosphate [2]) of the same variant?
**A.** Its value is 5.44e-05 ± 1.7e-05 s⁻¹.

**Q.** And the “self-cleavage kobs at 640 uM GlcN6P” value (glucosamine-6-phosphate [3])?
**A.** The value was 7.16e-05 ± 1e-05 s⁻¹.

**Q.** What about the “self-cleavage kobs at 2500 uM GlcN6P” value (glucosamine-6-phosphate [4]) of the same variant?
**A.** Its value is 0.000166 ± 1.6e-05 s⁻¹.

**Q.** And the “self-cleavage kobs at 10000 uM GlcN6P” value (glucosamine-6-phosphate [5])?
**A.** Its value is 0.000325 ± 4.4e-05 s⁻¹.

**Q.** Which results are given for U31C U47A?
**A.** kcat (glucosamine-6-phosphate [1]): 0.00379 ± 0.00061 s⁻¹; KM (glucosamine-6-phosphate [6]): 1800 ± 460 µM; self-cleavage kobs at 40 uM GlcN6P (glucosamine-6-phosphate [7]): 8.24e-05 ± 1.4e-05 s⁻¹; self-cleavage kobs at 160 uM GlcN6P (glucosamine-6-phosphate [2]): 0.000354 ± 7.7e-05 s⁻¹; self-cleavage kobs at 640 uM GlcN6P (glucosamine-6-phosphate [3]): 0.00107 ± 0.00022 s⁻¹; self-cleavage kobs at 2500 uM GlcN6P (glucosamine-6-phosphate [4]): 0.00178 ± 0.00031 s⁻¹; self-cleavage kobs at 10000 uM GlcN6P (glucosamine-6-phosphate [5]): 0.00367 ± 0.00049 s⁻¹

**Q.** U31C G32A was tested. Which kcat (glucosamine-6-phosphate [1]) did it give?
**A.** Its kcat is 0.0022 ± 0.00058 s⁻¹.

**Q.** What about the KM (glucosamine-6-phosphate [6]) of the same variant?
**A.** The KM was 6580 ± 2400 µM.

**Q.** And the “self-cleavage kobs at 40 uM GlcN6P” value (glucosamine-6-phosphate [7])?
**A.** Its value is 4.27e-05 ± 1.5e-05 s⁻¹.

**Q.** And the “self-cleavage kobs at 160 uM GlcN6P” value (glucosamine-6-phosphate [2])?
**A.** Its value is 6.8e-05 ± 1.3e-05 s⁻¹.

**Q.** And the “self-cleavage kobs at 640 uM GlcN6P” value (glucosamine-6-phosphate [3])?
**A.** Its value is 0.000179 ± 2.1e-05 s⁻¹.

**Q.** And the “self-cleavage kobs at 2500 uM GlcN6P” value (glucosamine-6-phosphate [4])?
**A.** Its value is 0.000604 ± 7.5e-05 s⁻¹.

**Q.** And the “self-cleavage kobs at 10000 uM GlcN6P” value (glucosamine-6-phosphate [5])?
**A.** The value was 0.00134 ± 0.00014 s⁻¹.

**Q.** Which results are given for C58G C61G?
**A.** kcat (glucosamine-6-phosphate [1]): 3.21e-05 ± 1e-05 s⁻¹; self-cleavage kobs at 640 uM GlcN6P (glucosamine-6-phosphate [3]): 5.63e-05 ± 2.4e-05 s⁻¹

**Q.** U31G U55C was tested. Which kcat (glucosamine-6-phosphate [1]) did it give?
**A.** The kcat was 0.00961 ± 0.0014 s⁻¹.

**Q.** What about the KM (glucosamine-6-phosphate [6]) of the same variant?
**A.** The KM was 1860 ± 410 µM.

**Q.** What about the “self-cleavage kobs at 40 uM GlcN6P” value (glucosamine-6-phosphate [7]) of the same variant?
**A.** The value was 0.000203 ± 4.2e-05 s⁻¹.

**Q.** What about the “self-cleavage kobs at 160 uM GlcN6P” value (glucosamine-6-phosphate [2]) of the same variant?
**A.** Its value is 0.001 ± 0.00031 s⁻¹.

**Q.** What about the “self-cleavage kobs at 640 uM GlcN6P” value (glucosamine-6-phosphate [3]) of the same variant?
**A.** The value was 0.00232 ± 0.00064 s⁻¹.

**Q.** And the “self-cleavage kobs at 2500 uM GlcN6P” value (glucosamine-6-phosphate [4])?
**A.** Its value is 0.00461 ± 0.0011 s⁻¹.

**Q.** What about the “self-cleavage kobs at 10000 uM GlcN6P” value (glucosamine-6-phosphate [5]) of the same variant?
**A.** The value was 0.00884 ± 0.0015 s⁻¹.

**Q.** A33U C61U was tested. Which kcat (glucosamine-6-phosphate [1]) did it give?
**A.** Its kcat is < 1e-05 s⁻¹.

**Q.** And the “self-cleavage kobs at 640 uM GlcN6P” value (glucosamine-6-phosphate [3])?
**A.** The value was < 1e-05 s⁻¹.

**Q.** Which results are given for A12U A48U?
**A.** kcat (glucosamine-6-phosphate [1]): 0.0014 ± 0.00052 s⁻¹; self-cleavage kobs at 160 uM GlcN6P (glucosamine-6-phosphate [2]): 7.62e-05 ± 1.5e-05 s⁻¹; self-cleavage kobs at 640 uM GlcN6P (glucosamine-6-phosphate [3]): 0.00024 ± 3.3e-05 s⁻¹; self-cleavage kobs at 2500 uM GlcN6P (glucosamine-6-phosphate [4]): 0.000479 ± 6.9e-05 s⁻¹; self-cleavage kobs at 10000 uM GlcN6P (glucosamine-6-phosphate [5]): 0.00139 ± 0.00023 s⁻¹

**Q.** C50A C71G was tested. Which kcat (glucosamine-6-phosphate [1]) did it give?
**A.** Its kcat is 1.89e-05 ± 5.7e-06 s⁻¹.

**Q.** What does the source list for G29A G41U?
**A.** kcat (glucosamine-6-phosphate [1]): 9.86e-05 ± 5e-06 s⁻¹; KM (glucosamine-6-phosphate [6]): 1050 ± 200 µM; self-cleavage kobs at 640 uM GlcN6P (glucosamine-6-phosphate [3]): 3.55e-05 ± 1.5e-05 s⁻¹; self-cleavage kobs at 2500 uM GlcN6P (glucosamine-6-phosphate [4]): 7.35e-05 ± 1.6e-05 s⁻¹; self-cleavage kobs at 10000 uM GlcN6P (glucosamine-6-phosphate [5]): 8.74e-05 ± 1.5e-05 s⁻¹

**Q.** How did the kcat (glucosamine-6-phosphate [1]) turn out when C16U U46A was run?
**A.** Its kcat is 0.00336 ± 0.00057 s⁻¹.

**Q.** And the KM (glucosamine-6-phosphate [6])?
**A.** Its KM is 2760 ± 760 µM.

**Q.** And the “self-cleavage kobs at 40 uM GlcN6P” value (glucosamine-6-phosphate [7])?
**A.** The value was 5.67e-05 ± 1.4e-05 s⁻¹.

**Q.** What about the “self-cleavage kobs at 160 uM GlcN6P” value (glucosamine-6-phosphate [2]) of the same variant?
**A.** Its value is 0.00012 ± 5.1e-05 s⁻¹.

**Q.** What about the “self-cleavage kobs at 640 uM GlcN6P” value (glucosamine-6-phosphate [3]) of the same variant?
**A.** The value was 0.000641 ± 0.00012 s⁻¹.

**Q.** What about the “self-cleavage kobs at 2500 uM GlcN6P” value (glucosamine-6-phosphate [4]) of the same variant?
**A.** Its value is 0.00176 ± 0.00024 s⁻¹.

**Q.** And the “self-cleavage kobs at 10000 uM GlcN6P” value (glucosamine-6-phosphate [5])?
**A.** The value was 0.00249 ± 0.00038 s⁻¹.

**Q.** How did the kcat (glucosamine-6-phosphate [1]) turn out when C58U C67U was run?
**A.** Its kcat is 2.38e-05 ± 3.4e-06 s⁻¹.

**Q.** And the “self-cleavage kobs at 2500 uM GlcN6P” value (glucosamine-6-phosphate [4])?
**A.** Its value is 2.92e-05 ± 8e-06 s⁻¹.

**Q.** And the “self-cleavage kobs at 10000 uM GlcN6P” value (glucosamine-6-phosphate [5])?
**A.** Its value is 2.01e-05 ± 6.4e-06 s⁻¹.
